B1: Epstein-Barr nuclear antigen leader protein (Epstein-Barr virus (strain B95-8) (HHV-4)), Q8AZK7 (parent)
chain: MGDRSEGPGPTRPGPPGIGPEGPLGQLLRRHRSPSPTRGGQEPRRVRRRVLVQQEEEVVSGSPSGPRGDRSEGPGPTRPGPPGIGPEGPLGQLLRRHRSPSPTRGGQEPRRVRRRVLVQQEEEVVSGSPSGPRGDRSEGPGPTRPGPPGIGPEGPLGQLLRRHRSPSPTRGGQEPRRVRRRVLVQQEEEVVSGSPSGPRGDRSEGPGPTRPGPPGIGPEGPLGQLLRRHRSPSPTRGGQEPRRVRRRVLVQQEEEVVSGSPSGPRGDRSEGPGPTRPGPPGIGPEGPLGQLLRRHRSPSPTRGGQEPRRVRRRVLVQQEEEVVSGSPSGPRGDRSEGPGPTRPGPPGIGPEGPLGQLLRRHRSPSPTRGGQEPRRVRRRVLVQQEEEVVSGSPSGPRGDRSEGPGPTRPGPPGIGPEGPLGQLLRRHRSPSPTRGGQEPRRVRRRVLVQQEEEVVSGSPSGPLRPRPRPPARSLREWLLRIRDHFEPPTVTTQRQSVYIEEEEDED

Variants of: B1
Conditions: with hdac4_human HDAC4, P56524
Chain of hdac4_human HDAC4, P56524 (P56524 whole entry): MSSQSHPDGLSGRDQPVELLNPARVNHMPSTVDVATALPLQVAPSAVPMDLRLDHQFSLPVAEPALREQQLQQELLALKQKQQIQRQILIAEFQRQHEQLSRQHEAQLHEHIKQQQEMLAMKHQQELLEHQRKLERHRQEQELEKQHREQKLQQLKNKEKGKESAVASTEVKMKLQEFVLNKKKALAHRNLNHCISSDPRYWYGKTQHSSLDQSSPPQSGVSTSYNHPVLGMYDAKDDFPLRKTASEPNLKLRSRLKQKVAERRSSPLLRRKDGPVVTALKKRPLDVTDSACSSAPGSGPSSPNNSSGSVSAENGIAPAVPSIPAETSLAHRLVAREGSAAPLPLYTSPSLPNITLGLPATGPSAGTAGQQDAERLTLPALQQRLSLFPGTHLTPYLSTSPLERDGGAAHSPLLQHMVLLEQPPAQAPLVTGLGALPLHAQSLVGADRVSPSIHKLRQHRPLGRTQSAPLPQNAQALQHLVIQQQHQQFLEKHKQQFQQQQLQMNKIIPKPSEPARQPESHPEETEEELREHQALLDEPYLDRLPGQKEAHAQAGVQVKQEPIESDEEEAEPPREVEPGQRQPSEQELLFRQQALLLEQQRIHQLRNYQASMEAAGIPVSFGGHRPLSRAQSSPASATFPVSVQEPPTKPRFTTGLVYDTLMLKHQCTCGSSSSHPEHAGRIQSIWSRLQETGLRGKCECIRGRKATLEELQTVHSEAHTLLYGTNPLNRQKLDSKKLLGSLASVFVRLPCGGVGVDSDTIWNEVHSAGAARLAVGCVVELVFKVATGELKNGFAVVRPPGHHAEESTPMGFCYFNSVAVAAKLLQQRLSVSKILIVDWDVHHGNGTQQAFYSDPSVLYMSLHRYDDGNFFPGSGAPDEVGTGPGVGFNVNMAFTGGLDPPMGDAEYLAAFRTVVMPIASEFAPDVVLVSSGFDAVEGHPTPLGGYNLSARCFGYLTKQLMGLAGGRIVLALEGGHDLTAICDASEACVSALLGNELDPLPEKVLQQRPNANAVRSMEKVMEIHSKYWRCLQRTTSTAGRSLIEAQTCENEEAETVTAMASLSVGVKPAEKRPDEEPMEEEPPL

Variant	effect of a mutation on the interaction
S33A;S35A;S62A	decreasing interaction strength

Source: IntAct's records for PubMed 17159145
